Source: patent publication US12364733B1, “Method for treating septic shock” (Inotrem, priority 2018, dated 2025)
“Also recorded” adds a separate entry of the source.

Tested on: septic shock patients
Assay: Phase IIa clinical trial with nangibotide in septic shock patients (NCT03158948): safety, treatment emergent adverse events
Format: in vivo, human
Settings: for safety and tolerability: up to 3 mg/kg/h
Protocol: This was a European prospective, […], multinational study in 14 centers from 4 countries (France, Belgium, the Netherlands, and Spain). Patients were recruited from July 2017 to June 2018. The study was conducted in accordance with the principles set forth in the Declaration of Helsinki and subsequent amendments, the Guidelines of the International Conference on Harmonization on GCP, as well as the requirements of national drug and data protection laws and other applicable regulatory requirements.
This was a randomized, double-blind, two-stage, placebo-controlled study. As described in FIG. 7, the study was composed of 2 stages with a similar treatment regimen, in which 0.3, 1.0 or 3.0 mg/kg/h of nangibotide (corresponding to peptide LR12, having an amino acid sequence as set forth in SEQ ID NO: 9, also known as motrem) was tested versus placebo. All patients with a diagnosis of septic shock were considered for study participation. All potential study patients underwent standard care management procedures. Patients with evidence of septic shock according to the Sepsis-3 definition (Singer et al, JAMA 2016) were considered for inclusion (i.e., patients suffering from sepsis and having (i) persisting hypotension requiring vasopressors to maintain their mean arterial pressure ≥65 mm Hg and (ii) a serum lactate level >2 mmol/L (18 mg/dL) despite adequate volume resuscitation).
After screening for eligibility, patients were randomized to one of the treatment arms. Then, they received either a 5 mg/kg loading dose of nangibotide over 15 minutes followed by a continuous intravenous (i.v.) infusion of nangibotide or a matching placebo on top of standard of care. Treatment with study drug was initiated as early as possible, but no later than 24 hours after the onset of septic shock, defined by the start of vasopressor therapy. Patients were treated until 12 (±2) hours after the resolution of their septic shock (defined as vasopressor withdrawal) with a maximum treatment duration of 5 days (120 hours).
Stage 1 was performed to investigate ascending doses of nangibotide or placebo in a sequential design in cohorts of 4 patients (3:1 randomization). After completion of a cohort, safety and PK data were reviewed by an independent data safety monitoring board (DSMB) and the study could progress to the next cohort/stage. Stage 2 investigated 3 doses of nangibotide in a randomized, balanced, parallel-group design involving up to 3 doses of nangibotide and a placebo arm.
Adverse events (AEs) were coded using the MedDRA dictionary version 18.1. Treatment-emergent adverse events (TEAEs) were summarized and listed. Analysis was performed in 49 septic shock patients. The demographic and baseline characteristics were summarized in a descriptive fashion within each population: categorical variables were summarized by contingency tables (frequencies and percentages). sTREM-1 levels at day 1 were also described (mean, standard deviation, standard error, median, quartiles and range, minimum and maximum values). Mortality rates were reported by frequency and percentage. For continuous endpoints, i.e., the sequential organ failure assessment (SOFA), missing data were imputed using LOCF (Last Observation Carry-Forward). For time-to-event analyses, i.e., duration of invasive mechanical ventilation (IMV), duration of continuous renal replacement therapy (CRRT), survival, censored data techniques were utilized. In addition, a sensitivity analysis of time to event data (except survival) was performed using censoring at maximum limit for the corresponding observation period (i.e., either day 28 or day 90). […] The following comparisons were made: each nangibotide dose arm to placebo, all nangibotide doses combined versus placebo, and dose-response using an ordinal trend test. […]

Substance: nangibotide (LQEEDAGEYGCM; TLT-1 peptide)
- All TEAEs leading to treatment withdrawal, % of all TEAEs (0.3 mg/kg/h): (0.0%)
- All TEAEs leading to treatment withdrawal, number (0.3 mg/kg/h): 0
- All TEAEs related to study drug (by investigator), % of all TEAEs (0.3 mg/kg/h): (0.0%)
- All TEAEs related to study drug (by investigator), number (0.3 mg/kg/h): 0
- All TEAEs with intensity severe, % of all TEAEs (0.3 mg/kg/h): (21.4%)
- All TEAEs with intensity severe, number (0.3 mg/kg/h): 12
- All serious TEAEs (including death), % of all TEAEs (0.3 mg/kg/h): (8.9%)
- All serious TEAEs (including death), number (0.3 mg/kg/h): 5
- All TEAEs leading to treatment withdrawal, % of all TEAEs (1.0 mg/kg/h): (0.0%)
- All TEAEs leading to treatment withdrawal, number (1.0 mg/kg/h): 0
- All TEAEs related to study drug (by investigator), % of all TEAEs (1.0 mg/kg/h): (7.1%)
- All TEAEs related to study drug (by investigator), number (1.0 mg/kg/h): 4
- All TEAEs with intensity severe, % of all TEAEs (1.0 mg/kg/h): (23.2%)
- All TEAEs with intensity severe, number (1.0 mg/kg/h): 13
- All serious TEAEs (including death), % of all TEAEs (1.0 mg/kg/h): (5.4%)
- All serious TEAEs (including death), number (1.0 mg/kg/h): 3
- All TEAEs leading to treatment withdrawal, % of all TEAEs (3.0 mg/kg/h): (0.0%)
- All TEAEs leading to treatment withdrawal, number (3.0 mg/kg/h): 0
- All TEAEs related to study drug (by investigator), % of all TEAEs (3.0 mg/kg/h): (0.0%)
- All TEAEs related to study drug (by investigator), number (3.0 mg/kg/h): 0
- All TEAEs with intensity severe, % of all TEAEs (3.0 mg/kg/h): (13.1%)
- All TEAEs with intensity severe, number (3.0 mg/kg/h): 8
- All serious TEAEs (including death), % of all TEAEs (3.0 mg/kg/h): (8.2%)
- All serious TEAEs (including death), number (3.0 mg/kg/h): 5
- adverse events related to nangibotide treatment at the highest dose (highest dose): no adverse events related to nangibotide treatment were observed
- AEs related to infections and cardiac disorders, nangibotide groups vs placebo (human, in vivo): proportionally higher in the nangibotide groups
- incidence of atrial fibrillation and thrombocytopenia, nangibotide groups vs placebo (human, in vivo): proportionally higher in the nangibotide groups
- number of SAEs/AEs and number of patients with SAEs/AEs, nangibotide groups vs placebo group (human, in vivo): comparable
- suspected unexpected serious adverse reactions (SUSARs), number (nangibotide-treated group, without obvious explanation): Two
- adverse events leading to treatment withdrawal (septic shock patients, 0.3-3.0 mg/kg/h): No adverse events (AEs) led to treatment withdrawal
- safety and tolerability (septic shock patients): safe and well-tolerated
- safety and tolerability (septic shock patients, listed as nangibotide): safe and well tolerated; also recorded: well-tolerated at all doses tested
